We go through one protein from article PMC2638020, “Large-Scale Structural Analysis of the Classical Human Protein Tyrosine Phosphatome” (Cell, 2009).

This data set deals with the molecule itself. The experiment in a line: AUC; sedimentation equilibrium; 0.2, 0.4 and 0.8 mg/ml, 7500 and 10,000 rpm; global fit with a self-association model; dimer to monomers.

B1: RPTPγ tandem phosphatase domains (D1-D2), wild type (domain or fragment)
chain: not shown
notes: RPTPγ (PTPRG), human, tandem catalytic domains D1-D2; PDB 2NLK); Vector, tag state and construct limits are in the Supplemental Data; also called PTPRG; RPTPγ D1-D2; source: E. coli BL21(DE3), purified
On to B1, for which binding was put at a Kd of 3.5 ± 0.3 µM and the stoichiometry N (in general, a count of units in the complex or per binding partner) turned out to be 2.
